Test results: IntAct's records for PubMed 21828050

B1: Kelch-like protein 7 (Homo sapiens), Q8IXQ5 (parent)
chain: MAASGVEKSSKKKTEKKLAAREEAKLLAGFMGVMNNMRKQKTLCDVILMVQERKIPAHRVVLAAASHFFNLMFTTNMLESKSFEVELKDAEPDIIEQLVEFAYTARISVNSNNVQSLLDAANQYQIEPVKKMCVDFLKEQVDASNCLGISVLAECLDCPELKATADDFIHQHFTEVYKTDEFLQLDVKRVTHLLNQDTLTVRAEDQVYDAAVRWLKYDEPNRQPFMVDILAKVRFPLISKNFLSKTVQAEPLIQDNPECLKMVISGMRYHLLSPEDREELVDGTRPRRKKHDYRIALFGGSQPQSCRYFNPKDYSWTDIRCPFEKRRDAACVFWDNVVYILGGSQLFPIKRMDCYNVVKDSWYSKLGPPTPRDSLAACAAEGKIYTSGGSEVGNSALYLFECYDTRTESWHTKPSMLTQRCSHGMVEANGLIYVCGGSLGNNVSGRVLNSCEVYDPATETWTELCPMIEARKNHGLVFVKDKIFAVGGQNGLGGLDNVEYYDIKLNEWKMVSPMPWKGVTVKCAAVGSIVYVLAGFQGVGRLGHILEYNTETDKWVANSKVRAFPVTSCLICVVDTCGANEETLET

Variants of: B1
Settings: with cul3_human CUL3, Q13618

| Variant | effect of a mutation on the interaction |
| --- | --- |
| A153T | disrupting interaction |
| A153V | disrupting interaction |

Variants of: B1
Settings: with cul3_human CUL3, Q13618
Remark: another data set of the same source

| Variant | effect of a mutation on the interaction |
| --- | --- |
| A153V | decreasing interaction |
